Assay results from the supplement of paper PMC12042874.
± gives the uncertainty stated by the source.

assay: amyloid nucleation score (Sup35N fusion, yeast selection) (log enrichment); library NNK3; higher = more nucleation; inactive = no reads after selection
In short: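 The nucleation score, computed with DiMSum, is the log enrichment of output over input reads, centred on the mode score of non-aggregating sequences. Sequences with under 100 input reads were dropped. Reads were generated by Illumina sequencing of plasmid inserts from psi-negative yeast with Sup35N fused to peptides of 20 random codons, induced with 100 μM copper sulfate for 24 hours and grown 7 days at 30°C on medium lacking adenine and uracil.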

Row | Substance | amyloid nucleation score
1 | RSLDRRSCAMHILRGHQLKT | inactive
2 | VQGRYLRRVCMRMVPLRRTD | inactive
3 | TVLVAGIGCEWSMGESTAMW | inactive
4 | RASFVLRCFKIDDVVVQFHL | 1.23 ± 0.15
5 | WCVASILRQFPLCYFITQNP | inactive
6 | GLAVNNRPDCEVSSLNRLLM | inactive
7 | RAQKVPCVIFSYTWIRSMSD | inactive
8 | KPDVY | inactive
9 | PVFLCSLLLVPKANSIPGK | inactive
10 | LGMCSHESYNLHEEICIW | inactive
11 | NAIGEISSVYSCTL | inactive
12 | SVIRVMSFG | inactive
13 | HILVKITR | 0.359 ± 0.71
14 | TYEVRTCWDWQRMGSMYLAR | inactive
15 | WGLLRYYE | 0.091 ± 0.28
16 | QKESYHY | inactive
17 | LLYMSECNELSIDRLVNLSK | inactive
18 | ITWSFTVDMDALCCGPWNVR | 3.18 ± 0.078
19 | RVFSTFILYGETKFFLVPET | 0.677 ± 0.23
20 | CKMLNYFLCT | 1.1 ± 0.13
21 | LLVYAVENPGLVWNSRHGLF | -1.37 ± 2.5
22 | VVMCGCSSSRMGLGPVYRTF | inactive
23 | TFWYLFCDDDS | inactive

Row | Substance | amyloid nucleation score
24 | QYLTRVHSPEDGTMA | 0.125 ± 0.75
25 | SICSEVGSSQLVVL | inactive
26 | KRFHWFGVGVDAVMRFGV | inactive
27 | GRAHQFLISSFLSPGGPLMR | inactive
28 | YEPSNCKLVSMYVFCRLKLA | -0.574 ± 1
29 | SNSFLFYFEYSGVKLRRLGL | inactive
30 | ALFTESF | inactive
31 | ASMLLDKYFANLYELVLRVF | inactive
32 | ARLPFCAISLTRYGWFSCRC | inactive
33 | AHCCSFRAEFV | 1.75 ± 0.096
34 | SYMQMTELKEAP | inactive
35 | FSYCG | inactive
36 | HVPYIHRIFIWTYK | inactive
37 | SLVNGAWLAVMNMSRCLWIF | inactive
38 | TSFGPKLPTGVFVCEGSNDR | inactive
39 | LCHSSRGDIH | inactive
40 | TFYSSML | inactive
41 | QKEDFIVSLWYRVRLFDRNS | inactive
42 | QFRFSFASYFMRSVSIGWIG | inactive
43 | GVVSMVYINKWTRFWVPRPS | inactive
44 | SMDWHAYLDRILLYVRSHS | inactive
45 | LNYVLS | inactive
46 | FSFPMEIWKGFVYRTA | 3.16 ± 0.081

Row | Substance | amyloid nucleation score
47 | MSVRG | inactive
48 | KWAWVGISCPRYRSRLGYFS | inactive
49 | MNDNLNNHVSDEIFSFVG | 0.813 ± 0.2
50 | IYIAKLHEFSIRYVLPVWYI | inactive
51 | GACVKDSLVAGNSSMTSAGL | 3.9 ± 0.061
52 | WNIFSYNNSLVWNPEGNESG | 0.836 ± 0.27
53 | LCVIWIVSHRRDCMAFCEQQ | inactive
54 | NLCFCALCGKYIRVNVVAM | 1.52 ± 0.088
55 | GCDILQFRHCF | inactive
56 | FFLVLNSACME | 0.058 ± 0.36
57 | SLPYCGVTSLSHSWVPMAIR | inactive
58 | YFRVAFCTHGFIMARCAFSS | inactive
59 | FMGFFYNFYVPKLKSSVHNE | 0.303 ± 0.34
60 | GFYSLISQQQFVLNFNGYKM | 2.34 ± 0.086
61 | LLFQSIVVY | inactive
62 | PMQTSNLNYCVCYCCAVRTF | 0.88 ± 0.34
63 | SFSLYLFPSRGLAPLPTAWL | 1.86 ± 0.089
64 | LLLCS | 0.402 ± 0.18
65 | NNCVITFFEFSTWGCLYLKF | inactive
66 | HCFLRMWKLLRTYLQVVLET | inactive
67 | IIELYT | inactive
68 | YTLYLGCGTNDVWVDAYLYS | inactive
69 | NMQLVYDRMDE | inactive

Row | Substance | amyloid nucleation score
70 | QELQYLKAGSKF | inactive
71 | VRKKCLDPDGFLSRLGPAFD | -0.429 ± 0.91
72 | CNVTLSSTYEK | inactive
73 | NFRLSVLKVLCYVIVED | 2.14 ± 0.057
74 | KCMFSIFSGAASVLLKMFMV | inactive
75 | LCPIAMCCSG | inactive
76 | VSYISDQGC | inactive
77 | SSGAQQCILISSLVLNEDWL | -0.46 ± 0.76
78 | FRYPLNYN | inactive
79 | SFFNFRMD | inactive
80 | KALSCSRSFAVKVVYTQDP | inactive
81 | FNDLSAVFYLQGLKLDL | inactive
82 | FNHSRYDSVFWFVVHPSYEG | inactive
83 | FARVSVESRGGNVTFACLCI | 1.73 ± 0.12
84 | FVTYDPYTFIDYFIVSHPRL | 0.61 ± 0.17
85 | MGMARWYAKWLGWVLSMYRW | inactive
86 | GVSEAMCVILFYFYWKWVFP | inactive
87 | FPFKV | inactive
88 | YLTMLWLFHLRERAALMGLN | inactive
89 | INWTRLRSRSEVWDTGRVWT | inactive
90 | LSPCGL | inactive
91 | HGFEIDTRTDSRQAVNCMCC | inactive
92 | YSGDSWYVLYVGNPPGDYWR | 1.66 ± 0.09

Row | Substance | amyloid nucleation score
93 | AVFRLSSTISECDLHACAPV | inactive
94 | NFSCSSRNRWMCMDVGKVCR | -0.287 ± 0.34
95 | DCTSILELVGGARPTHSGLE | inactive
96 | FSNSSGNGEGDLRENLQNKM | inactive
97 | WNYRFYPVKRNGSFLSRIVR | -0.47 ± 0.8
98 | QYTCDDSCILFCCASWAEWS | 2.34 ± 0.081
99 | MTDFKSTLSTTSMFTGESLI | inactive
100 | RLYLKTDVSDTRHRYMWLSE | inactive
101 | SCNVVLRFGAMIYTL | inactive
102 | FMVILMRAISMSKIKSILYH | inactive
103 | SWLKVCRQGYGDSSIRYRLL | inactive
104 | SCFAVCHYESRLVYVTYSFL | inactive
105 | LNVGCLWRGDGGNRRAQWDV | inactive
106 | KGCNETWFVNPRGRYCWEFC | inactive
107 | IFVVYFGISTIRNT | 1.32 ± 0.097
108 | FLAMSSASMFRYFKPVASSE | 2.91 ± 0.066
109 | DSRLSAEYMVRMGKVYIDDS | inactive
110 | FSIPCDFDDNFATQELS | inactive
111 | WSAECLFLVWRIHSML | inactive
112 | DNVSKSSIHTTLVLASFLCS | 1.55 ± 0.11
113 | SKCSVGVLTRFR | inactive
114 | SMCGNWGNWASVGWNFCWRV | inactive
115 | PECFVTGIRGTSCCRESVD | inactive

Row | Substance | amyloid nucleation score
116 | TVGGEIVNSLGVWCYRVCKR | 0.723 ± 0.26
117 | IQQGKVYKGTLLLTAYMTSE | 1.11 ± 0.096
118 | TYLIWLGHRAHPMSLLHSFA | inactive
119 | SKLFFRNTLVSIISM | inactive
120 | SSLNSMIIIRFHTSKGHVCK | 1.32 ± 0.17
121 | VLQYECHVDMCRGRWSLGAI | inactive
122 | NTSGKCVKIDVRLNTVTS | inactive
123 | VEATSTRGDTAPVPERGMLG | -1.01 ± 1.7
124 | CLRSVDDWFKC | inactive
125 | IPTSQAEFCCFSGAKHFQIV | inactive
126 | QGMALPLTTGGGVNKRTCYG | inactive
127 | SSDECYSNHCIWCVKQ | 3.16 ± 0.061
128 | NVGNRCYWWVLMARLLSIFR | inactive
129 | RSCVCTTESPLSMTGLRRVV | inactive
130 | RSNGPLFQVVITYCVSLPLN | inactive
131 | GLDYLLHAIYFECRQSGGSR | 0.983 ± 0.17
132 | SLSPAGSGSFFGKGFWMMLA | inactive
133 | LFLAKRSLSDTLFQPDPFSR | inactive
134 | ESIVVRF | inactive
135 | CSLTKAVFQRQPLRRSKGTK | inactive
136 | YCFICVDSIAL | 2.27 ± 0.072
137 | GFFYRDDARNFVLVTNSWRL | inactive
138 | EQSTRKGNR | inactive

Row | Substance | amyloid nucleation score
139 | DKTYYYRDDSLV | inactive
140 | DFHSLKNDF | inactive
141 | LFMTRSFILYFTYPFRYGVV | inactive
142 | AGHYLLSPGYQMMLERSNRS | inactive
143 | LSLKRHLYLKVDASLTCVRT | inactive
144 | VRNNVCRPVCYGWNGGYITV | inactive
145 | IIVSRWLWWDIGVSRNW | inactive
146 | SFYWMHMSAMIEYDPFTYGA | inactive
147 | GNIFRRYTVPSDANTKTWIY | inactive
148 | NVNILFDNLIRDWFVSMWED | inactive
149 | LLNTRGSRVMLLGHRLFDN | inactive
150 | FSFNAG | inactive
151 | VSFFDQTKASGYSLRLMLFM | inactive
152 | LSGMMFAGPFLTCSLDCWML | inactive
153 | CLLVRTIMRVLYFWMES | inactive
154 | FQNDDVTS | inactive
155 | GVYPSGCYLNVRFWSLVHGA | inactive
156 | YYPLLIPLY | inactive
157 | NTRKHFVSWCAHPDEDSSFM | inactive
158 | RNKLFLINWLFYNCMTWAFH | inactive
159 | EDLNPSSVLYRPSIDFM | inactive
